From US20160145645

What was measured:
Assay in all cases: cell_activity
[1] = test system: hSIRT ZFN pair (artificial); conditions: ZFN activity of the pair; assay conditions not given
[2] = test system: ZFN pair targeting CHO NW_003618207.1 (artificial); conditions: indels in CHO K1 3 days post transfection, CEL-I or sequencing
[3] = test system: ZFN pair targeting CHO Neu3 (artificial); conditions: indels in CHO K1 3 days post transfection, CEL-I or sequencing
[4] = test system: ZFN pair targeting CHO Rosa26 (artificial); conditions: indels in CHO K1 3 days post transfection, CEL-I or sequencing
[5] = test system: hRSK4 ZFN pair (artificial); conditions: ZFN activity of the pair; assay conditions not given

ATCTTGCCTGATTTGTAAATACAAAGTTGACTGTGAA (double strand) [hSIRT ZFN recognition sequence]
activity [1]: 16.7%

CHO NW_003618207.1 bp 12931-12970
activity [2]: 16%

CHO Neu3 locus
activity [3]: 41%

CHO Rosa26 locus
activity [4]: 31%

GGCTCCTACTCTGTTTGCAAGCGATGCATACATGCAA (double strand) [hRSK4 ZFN recognition sequence]
activity [5]: 65.7%
